Data published in publication PMC5503940.

How the values were obtained:
[1] = target: αβ-tubulin heterodimer
[2] = target: αβ-tubulin heterodimer; experiment: SEC-MALS; KW803 (Shodex) column, 20 mM Pipes pH 6.8, 10 μM AMPPNP; 30 μl at about 3 mg/ml tubulin–Kif2C–DARPin complexes, 0.5 ml/min
[3] = target: αβ-tubulin heterodimer; remark: listed apart in the source

Substance “Kif2C-(sN+M) (short neck+motor construct of human Kif2C/MCAK) (from UniProt Q99661 216-598) (domain or fragment)” has a microtubule-stimulated ATPase, K mMT; tubulin as Taxotere-stabilized microtubules [1] of 1.1 µM.

“Kif2C-(sN+M) R420S (from UniProt Q99661 216-598) (domain or fragment)” showed a microtubule depolymerase activity (turbidity, percent of wild-type Kif2C-(sN+M)) [1] of 5.7% and a microtubule-stimulated ATPase, k cat; tubulin as Taxotere-stabilized microtubules [1] of 0.33 s⁻¹.

For “Kif2C-(sN+M) R510A (from UniProt Q99661 216-598) (domain or fragment)”, the microtubule-stimulated ATPase, K mMT; tubulin as Taxotere-stabilized microtubules [1] was 17 µM.

In the case of “Kif2C-(sN+M) R540A (from UniProt Q99661 216-598) (domain or fragment)”, the microtubule depolymerase activity (turbidity, percent of wild-type Kif2C-(sN+M)) [1] was 5.5%.

“Kif2C-(sN+M)-(G4S)3-DARPin (Kif2C-(sN+M) linked to the D1 DARPin by a (G4S)3 peptide) (from UniProt Q99661 216-598)” was tested, and the stoichiometry N (tubulin:construct) [2] was 1.

Work on “Kif2C-(sN+M)-(G4S)4-GGS-DARPin (Kif2C-(sN+M) fused to the A-C2 DARPin) (from UniProt Q99661 216-598)” yielded a microtubule-stimulated ATPase, apparent K m (K mMT); tubulin as Taxotere-stabilized microtubules [3] of 20 µM, a tubulin-stimulated ATPase, apparent Michaelis–Menten constant [3] of 0.5 µM and a tubulin-stimulated ATPase, k cat [3] of 0.1 s⁻¹.
